Results from patent US9518084B2, “Epitope tag for affinity-based applications” (VIB VZW, priority 2010, dated 2016).

What was measured:
[1] = test system: EPEA (SEQ ID NO:1)-tagged Rev protein; assay: In vivo detection of EPEA-tagged Rev in transfected HeLa cells by confocal microscopy; format: cell-based, HIV; details: nanobody fused to mKO1 or GFP, GYQDYEPEA and EPEA tags
Description: In another set of experiments, we explored the use of the EPEA (SEQ ID NO:1) tag to detect/visualize the expression of recombinant proteins within a (living) eukaryotic cell. […] Cells that are double-transfected with Rev-[sequence] (SEQ ID NO:10) or Rev-[sequence]
The two different tags [sequence] (SEQ ID NO:2) and EPEA (SEQ ID NO:1) were C-terminal fused to Rev by PCR using Takara Ex Taq polymerase (TAKARA BIO INC).
HeLa, human epithelial cells were maintained using standard procedures until confluent in DMEM medium with 10% fetal calf serum. For transfection of plasmid DNA in HeLa, cells were harvested by a Trypsin/EDTA treatment, counted and plated onto glass bottom microwell dishes (MatTek corporation). Transfections were preformed according to manufacturer's manual: the 4×10^5 cells were seeded in a 35 mm dish. […]
Transfected HeLa cells were imaged with a laser scanning SP5 confocal microscope (Leica Microsystems) equipped with an AF 6000 microscope and an AOBS, using a HCX PL APO×63 (NA 1.2) water immersion objective magnification. GFP was monitored with the Ar laser using the 488-nm line for excitation, and emission was detected between 492 and 570 nm. mKusabira orange fluorescent protein (mKO) was imaged using the DPSS-561 nm laser for excitation, and emission was detected between 570 and 675 nm.

[2] = test system: Nb458-gaaEPEA (SEQ ID NO:8); assay: Solid phase ELISA, bivalent versus monovalent NbSyn2 alkaline phosphatase conjugate; format: binding; details: alkaline phosphatase conjugates, dilutions 1/250 to 1/4000, OD405
Nb458-gaaEPEA (SEQ ID NO:8), sequence (as listed by the source): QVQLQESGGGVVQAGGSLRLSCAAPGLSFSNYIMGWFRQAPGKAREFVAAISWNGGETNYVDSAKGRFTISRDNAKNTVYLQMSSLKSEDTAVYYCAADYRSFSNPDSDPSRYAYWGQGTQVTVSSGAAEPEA

B1: NbSyn1a: Nanobody that specifically binds to α-synuclein, 126 amino acids, SEQ ID NO:24 (protein)
VHH: EVQLVESGGGSVQAGGSLSLACAPSGLNASSYCMGWFRQSPGKEREGVARINGNAGIKTAYADSVKDRFTLSRDNAKNTVYLQMNSLKAEDSAIYFCAAKSSPGYCGGNWDNFGYWGQGTQVTVSS
modifications: Nb_Syn1a
[1]
  Recognition of tagged Rev in double-transfected cells (colocalization in the nucleus): recognized in vivo

B2: biNbSyn2: bivalent version of NbSyn2 (SEQ ID NO:68) with a GGGGSGGGS linker between both NbSyn2 sequences (protein)
chain: QVQLVESGGGSVQAGGSLRLSCAASGIDSSSYCMGWFRQRPGKEREGVARINGLGGVKTAYADSVKDRFTISRDNAENTVYLQMNSLKPEDTAIYYCAAKFSPGYCGGSWSNFGYWGQGTQVTVSSGGGGSGGGSQVQLQESGGGSVQAGGSLRLSCAASGIDSSSYCMGWFRQRPGKEREGVARINGLGGVKTAYADSVKDRFTISRDNAENTVYLQMNSLKPEDTAIYYCAAKFSPGYCGGSWSNFGYWGQGTQVTVSSHHHHHH
modifications: Nanobody biNbSyn2
[2]
  Sensitivity of ELISA detection compared with monovalent NbSyn2-AP conjugate: sensitivity of detection increases
